Non-standard residues stand in square brackets, D forms with d. pY = N[C@@H](Cc1ccc(OP(=O)(O)O)cc1)C(=O)O
Molecular target: T1, C-terminal SH2 (cSH2) domain of PLC-γ1 (rat, UniProt P10686 664-766)
T1 sequence (looked up): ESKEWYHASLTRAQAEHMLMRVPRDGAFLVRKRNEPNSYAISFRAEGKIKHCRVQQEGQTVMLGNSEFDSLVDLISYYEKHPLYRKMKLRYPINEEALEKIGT
Assay: crystal structure

B1: pTyr783 peptide of PLC-γ1 (peptide)
peptide: Ac-DYGALYEGRNPGF[pY]VEAN-NH2
SMILES: CC(=O)N[C@@H](CC(=O)O)C(=O)N[C@@H](Cc1ccc(O)cc1)C(=O)NCC(=O)N[C@@H](C)C(=O)N[C@@H](CC(C)C)C(=O)N[C@@H](Cc1ccc(O)cc1)C(=O)N[C@@H](CCC(=O)O)C(=O)NCC(=O)N[C@@H](CCCNC(=N)N)C(=O)N[C@@H](CC(N)=O)C(=O)N1CCC[C@H]1C(=O)NCC(=O)N[C@@H](Cc1ccccc1)C(=O)N[C@@H](Cc1ccc(OP(=O)(O)O)cc1)C(=O)N[C@H](C(=O)N[C@@H](CCC(=O)O)C(=O)N[C@@H](C)C(=O)N[C@@H](CC(N)=O)C(N)=O)C(C)C
  binding result: binds
